Reference: PMC8617236

Molecular target: chicken LPCAT3 (cLPCAT3), Twin-Strep tag removed, purified in LMNG/GDN (Gallus gallus)
Assay: cryo-EM structure; cLPCAT3 extracted with LMNG, dimer fractions from SEC in GDN; with 0.2 mM arachidonoyl CoA (3.49 Å) or 0.5 mM 12:0-LPC (3.57 Å); C2 symmetry

## chicken LPCAT3 (cLPCAT3), Twin-Strep tag removed, purified in LMNG/GDN (enzyme)
  stoichiometry N: 2
